Experimental findings from patent US20070264195A1 (H LUNDBECK A S, published 2007) are described below.

B1: human NGF-propeptide expressed in E. coli (peptide)
chain: EPHSESNVPAGHTIPQVHWTKLQHSLDTALRRARSAPAAAIAARVAGQTRNITVDPRLFKKRRLRSPRVLFSTQPPREAADTQDLDFEVGGAAPFNRTHRSKR
notes: The residues 19-121 come from the description of the propart for NGF; also called proNGF propeptide; propeptide of proNGF
B2: Rat proBDNF (produced in 293 cells, purified from conditioned medium) (ligand, UniProt P23363 19-249, looked up)
chain: APMKEANVHGQGNLAYPAVRTHGTLESVNGPRAGSRGLTTTSLADTFEHVIEELLDEDQKVRPNEENHKDADLYTSRVMLSSQVPLEPPLLFLLEEYKNYLDAANMSMRVRRHSDPARRGELSVCDSISEWVTAADKKTAVDMSGGTVTVLEKVPVSKGQLKQYFYETKCNPMGYTKEGCRGIDKRHWNSQCRTTQSYVRALTMDSKKRIGWRFIRIDTSCVCTLTIKRGR
notes: Pro-form of BDNF
B3: pro-domain of human BDNF fused to GST (glutathione S-transferase), produced in E. coli (other)
chain: APMKEANIRGQGGLAYPGVRTHGTLESVNGPKAGSGLTSLADTFEHVIEELLDEDQKVRPNEENNKDADLYTSRVMLSSQVPLEPPLLFLLEEYKNYLDAANMSMRVRR
notes: The residues 19-127 come from the description of the propart for BDNF; also called GST-pro-domain of proBDNF; pro-domain of proBDNF (a GST-fusion protein); not shown: glutathione S-transferase (GST) fusion partner
B4: recombinant human p75 neurotrophin receptor/Fc chimera (R&D Systems) (Fc fusion, UniProt P08138 29-250, looked up)
chain: KEACPTGLYTHSGECCKACNLGEGVAQPCGANQTVCEPCLDSVTFSDVVSATEPCKPCTECVGLQSMSAPCVEADDAVCRCAYGYYQDETTGRCEACRVCEAGSGLVFSCQDKQNTVCEECPDGTYSDEANHVDPCLPCTVCEDTERQLRECTRWADAECEEIPGRWITRSTPPEGSDSTAPSTQEPEAPPEQDLIASTVAGVVTTVMGSSQPVVTRGTTDN
notes: Bought reagent; also called p75-IgG-Fc chimeric protein; p75NTR; not shown: IgG Fc of the bought chimera
B5: Mature murine NGF (Austral Biologicals) (ligand, UniProt P01139 122-241, looked up)
chain: SSTHPVFHMGEFSVCDSVSVWVGDKTTATDIKGKEVTVLAEVNINNSVFRQYFFETKCRASNPVESGCRGIDSKHWNSYCTTTHTFVKALTTDEKQAAWRFIRIDTACVCVLSRKATRRG
notes: mature; also called nerve growth factor
B6: Mature recombinant human BDNF (Promega #G1491) (ligand)
chain: HSDPARRGELSVCDSISEWVTAADKKTAVDMSGGTVTVLEKVPVSKGQLKQYFYETKCNPMGYTKEGCRGIDKRHWNSQCRTTQSYVRALTMDSKKRIGWRFIRIDTSCVCTLTIKRGR
notes: also called mature BDNF

Assay [1] addresses T1, recombinant human TrkA/Fc chimera (R&D Systems) (human, UniProt P04629-2 34-407).
T1 construct: Bought reagent; also called TrkA-IgG-Fc; not shown: IgG Fc of the bought chimera
Nature of the assay: SPR (BIAcore), TrkA-IgG-Fc immobilized at 66 fmol/mm2. As to the method: (§1) FIG. 4: Characterization of binding of the proNGF propeptide to p75, TrkA, and Sortilin as measured by surface plasmon resonance analysis (BIAcore). Binding of 25-500 nM propeptide was measured to 91.5 fmol/mm² immobilized p75-IgG-Fc chimeric protein (upper panel), to 66 fmol/mm² immobilized TrkA-IgG-Fc (middle panel), and to 51 fmol/mm² purified Sortilin extracellular domain (lower panel). […] There was no detectable binding to p75 and TrkA.
On the technique in general: In SPR one partner is held on a chip, and binding of the other changes the refractive index at the surface.

In assay [2] the target is B4. Put plainly: SPR (BIAcore), p75-IgG-Fc immobilized at 91.5 fmol/mm2. How it is done: as §1
Assay [3] has as its target T2, purified human Sortilin extracellular domain (human, UniProt Q99523 78-755).
T2 construct: also called immobilized Sortilin; NTR-3
T2 sequence: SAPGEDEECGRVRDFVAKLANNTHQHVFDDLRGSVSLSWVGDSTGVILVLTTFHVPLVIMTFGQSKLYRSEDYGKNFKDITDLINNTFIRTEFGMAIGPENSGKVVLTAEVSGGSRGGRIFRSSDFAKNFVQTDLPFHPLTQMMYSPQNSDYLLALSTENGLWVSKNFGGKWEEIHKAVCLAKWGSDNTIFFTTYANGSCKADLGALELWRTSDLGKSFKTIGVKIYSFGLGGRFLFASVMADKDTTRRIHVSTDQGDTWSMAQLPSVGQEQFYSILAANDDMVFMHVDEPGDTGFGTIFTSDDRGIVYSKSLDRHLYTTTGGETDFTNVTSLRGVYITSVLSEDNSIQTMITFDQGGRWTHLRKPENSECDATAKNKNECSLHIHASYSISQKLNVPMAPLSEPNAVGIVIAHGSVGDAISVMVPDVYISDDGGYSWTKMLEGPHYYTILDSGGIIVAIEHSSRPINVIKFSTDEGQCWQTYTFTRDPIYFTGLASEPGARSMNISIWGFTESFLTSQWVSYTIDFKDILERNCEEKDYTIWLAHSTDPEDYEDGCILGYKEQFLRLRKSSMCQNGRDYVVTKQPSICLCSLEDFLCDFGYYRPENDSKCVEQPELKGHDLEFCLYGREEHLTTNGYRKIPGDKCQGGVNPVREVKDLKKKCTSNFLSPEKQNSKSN
Put plainly: SPR (BIAcore), 25-500 nM propeptide over Sortilin extracellular domain immobilized at 51 fmol/mm2. How it is done: as §1

For assay [4], the target named is T2, purified human Sortilin extracellular …. Put plainly: SPR (BIAcore), 5-500 nM proBDNF over Sortilin extracellular domain immobilized at 94 fmol/mm2. From the text:
(§2) FIG. 7: Characterization of proBDNF and BDNF binding to purified Sortilin as measured by surface plasmon resonance (BIAcore). Rat proBDNF was produced in 293 cells as described in Lee, R., Kermani, P., Teng, K. K. & Hempstead, B. L. Regulation of cell survival by secreted proneurotrophins. Science 294, 1945-1948 (2001). and purified from the conditioned medium. Mature recombinant human BDNF was from Promega (#G1491) and the pro-domain of human BDNF fused to GST (glutathione S-transferase) was produced in E. coli and purified by glutathione-sepharose affinity chromatography. Binding of 5-500 nM proBDNF (upper panel), pro-domain of proBDNF (a GST-fusion protein, middle panel) or BDNF (lower panel) was measured to 94 fmol/mm2 immobilized purified Sortilin extracellular domain. The experiment was carried out essentially as described for FIGS. 2-4.

Assay [5] shares this target. Nature of the assay: SPR (BIAcore), 5-500 nM GST-pro-domain over Sortilin extracellular domain immobilized at 94 fmol/mm2.
Excerpt: as §2

The target in assay [6] is T3, Human recombinant proNGF (produced in E. coli) (human, UniProt P01138 19-241).
T3 construct: The end 241 is the end of the entry as printed
Nature of the assay: SPR (BIAcore), 25-500 nM proNGF over p75-IgG-Fc immobilized at 91.5 fmol/mm2. How it is done:
FIG. 3: Characterization of proNGF binding to p75, TrkA, and Sortilin as measured by surface plasmon resonance analysis (BIAcore). Binding of 25-500 nM proNGF was measured to 91.5 fmol/mm² immobilized p75-IgG-Fc chimeric protein (upper panel), to 66 fmol/mm² immobilized TrkA-IgG-Fc (middle panel), and to 51 fmol/mm² purified Sortilin extracellular domain (lower panel).

The target in assay [7] is T1, recombinant human TrkA/Fc chimera (R&D …). Nature of the assay: SPR (BIAcore), 50-500 nM NGF over TrkA-IgG-Fc immobilized at 66 fmol/mm2. As to the method: (§3) FIG. 2: Characterization of NGF binding to p75, TrkA, and Sortilin as measured by surface plasmon resonance analysis (BIAcore). Binding of 50-500 nM NGF was measured to 91.5 fmol/mm² immobilized p75-IgG-Fc chimeric protein (upper panel), to 66 fmol/mm² immobilized TrkA-IgG-Fc (middle panel), and to 51 fmol/mm² purified Sortilin extracellular domain (lower panel).

In assay [8] the target is B4. Nature of the assay: SPR (BIAcore), 50-500 nM NGF over p75-IgG-Fc immobilized at 91.5 fmol/mm2. As to the method: as §3
The target in assay [9] is T2, purified human Sortilin extracellular …. Nature of the assay: SPR (BIAcore), 50-500 nM NGF over Sortilin extracellular domain immobilized at 51 fmol/mm2. How it is done: as §3
Assay [10] has the same target. Put plainly: SPR (BIAcore), other preparations of mature BDNF over immobilized Sortilin; other preparations of mature BDNF.
Assay [11] shares this target. Put plainly: SPR (BIAcore), 5-500 nM BDNF over Sortilin extracellular domain immobilized at 94 fmol/mm2; Promega #G1491 preparation.
Excerpt: as §2

T1 sequence (P04629 other isoform, or with tags, fused parts or gaps mutant): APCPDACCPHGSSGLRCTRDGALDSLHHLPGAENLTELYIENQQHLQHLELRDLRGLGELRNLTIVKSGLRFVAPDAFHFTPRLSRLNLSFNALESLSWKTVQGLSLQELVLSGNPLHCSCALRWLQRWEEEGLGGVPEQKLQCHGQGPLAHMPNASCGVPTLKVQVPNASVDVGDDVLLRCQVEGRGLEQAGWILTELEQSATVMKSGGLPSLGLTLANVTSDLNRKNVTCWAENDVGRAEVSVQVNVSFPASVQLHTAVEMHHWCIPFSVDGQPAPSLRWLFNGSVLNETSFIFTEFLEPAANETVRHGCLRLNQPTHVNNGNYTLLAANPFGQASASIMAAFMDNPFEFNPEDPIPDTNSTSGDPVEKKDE

The term Kd denotes the constant that tells how readily two partners part at equilibrium. For B1, the binding result in [1] and in assay [2] was “no binding (tested: 25-500 nM propeptide)” each time. This molecule came in with a Kd in assay [3] of roughly 0.087 µM.
B2 had a Kd in assay [4] of roughly 0.003 µM.
In [5], B3 displayed a Kd of roughly 0.058 µM.
B4: in [6], the Kd was roughly 0.012 µM.
Take B5: the Kd in assay [7] is roughly 0.002 µM; in [8] it was roughly 0.001 µM; in assay [9], roughly 0.087 µM.
Take B6: the Kd in assay [10] was 0.01 µM; in assay [11] it was roughly 0.04 µM.
